These results are taken from paper PMC6297170.

The target of the experiment is lysine decarboxylase CadA from Vibrio vulnificus (Vibrio vulnificus). Nature of the experiment: SEC; Sephacryl S-300 HR column on FPLC, 0.5 mL/min, 50 mM MES/100 mM NaCl pH 6.5; standards IgM 970 kDa, thyroglobulin 669 kDa, ferritin 440 kDa, catalase 232 kDa, aldolase 140 kDa; self-association of the purified enzyme. (SEC sorts molecules by how far they enter the pores of the column.)

One may read the stoichiometry N as a count of units in the complex or per binding partner. Substance “lysine decarboxylase CadA from Vibrio vulnificus (from UniProt A0A3Q0L4X5 1-797) (enzyme)” displayed a stoichiometry N of 10.
